Key:
[1] = Histopathology across four treatment groups; type: in vivo, BALB/c mice
Protocol: FIG. 12. Co-administration of vaccines and an anti-IL-4 mAb is safe. Histopathology across four treatment groups. […] Occasionally, these regions of were centered on lymphocyte-rich lymphatic vessels. The severity of the lung pathology was similar across the four treatment groups.
(§1) Male BALB/c mice were immunized with KLH, OXY-KLH, anti-IL-4 mAb, or OXY-KLH plus anti-IL-4 mAb. The OXY-KLH and the unconjugated KLH control were administered subcutaneously on days 0, 14 and 28, while the anti-IL-4 mAb was administered intraperitoneally as in EXAMPLE 2. A week after the third immunization, mice were euthanized with CO2 to perform histopathology and clinical pathology by serum chemistry. Organs were harvested and preserved in 10% formaldehyde (methanol free, ultrapure EM grade, Polysciences, Inc., Warminster, PA), and sent to the University of Minnesota School of Veterinary Medicine for histology analysis in the laboratory of Dr. Davis Seelig. Serum was collected by centrifugation at 7500 rpm for three minutes at 4° C. and collected in lithium heparin ([…], Becton, Dickinson and Co., Franklin Lakes, NJ). Frozen samples were sent to Marshfield Labs (Marshfield, WI) for the panel tests analysis.

[2] = Pre-clinical toxicology: serum biochemistry parameters and body weight; type: in vivo, BALB/c mice
Protocol: Serum biochemistry parameters in BALB/C mice treated with KLH, OXY-KLH, anti-IL-4 mAb, or anti-IL-4 mAb plus OXY-KLH. […] The values for AST (aspartate aminotransferase) were higher among groups, perhaps as a result of muscle injury due from the injections.
as §1

6OXY-specific GC B cells = 6OXY-specific GC B cells by magnetic enrichment and flow cytometry after OXY-KLH with IL-4; type: in vivo, mice; conditions: IL-4 60,000 IU s.c. with OXY-KLH in alum, seven days after one immunization
Text: FIG. 4. IL-4 increased vaccine-specific GC B cells and post-vaccination GC formation. Mice were immunized subcutaneously once with the OXY-KLH vaccine adsorbed in alum adjuvant with saline or IL-4 (60,000 IU, subcutaneously). At seven days after immunization, lymph nodes and spleens were collected for analysis of antigen-specific B cell populations. Using a two-step procedure, OXY-specific B cells were first isolated by magnetic enrichment using biotinylated oxycodone-based haptens conjugated to streptavidin (SA) conjugated to the fluorescent protein phycoerythrin (PE) or a decoy reagent, and then analyzed by multi-parameter flow cytometry. (A) 6OXY-specific CD38^neg GL7^high “committed” GC B cells; (B) 6OXY-specific CD38^+ GL7^+ “uncommitted” GC B cells; (C) Ratio of 6OXY-specific (CD38^neg) to (CD38^+) GL7^+ B cells, a measure of GC activation and B cell commitment to GC-dependent pathways; (D) 6OXY-specific IgM^high naive and memory B cells. Data shown are from two independent experiments and expressed as mean±SEM (n=10). […] Statistical symbols: *p<0.05, and […].
Mice were immunized subcutaneously once with OXY-KLH in alum adjuvant in combination with IL-4 (60,000 IU, Bio-Techne Corp., Minneapolis, MN). […]

[3] = serum, BALB/c mice, a week after third immunization, mean ± SEM

Molecule | Histopathology, kidney, heart, thymus, stomach, small intestine, large intestine, and pancreas ([1]; mouse, in vivo) | Histopathology, spleen ([1]; mouse, in vivo) | Histopathology, liver (centrolobular hepatocytes) ([1]; similar in severity across four treatment groups) | Histopathology, lungs (interstitium) ([1]; with concurrent congestion, severity similar across the four treatment groups) | Body weight ([2]; BALB/c mice, a week after third immunization, mean ± SEM) | Protein, bilirubin, ALT, urea nitrogen, and total cholesterol versus normal range ([2]; serum, BALB/C mice) | Values for AST (aspartate aminotransferase) ([2]; serum, BALB/C mice, perhaps muscle injury from the injections) | ALT [2, 3] | AST [2, 3] | Cholesterol [2, 3] | Total bilirubin [2, 3] | Total protein [2, 3] | Urea nitrogen [2, 3] | post-vaccination GC formation (fraction of subjects) (6OXY-specific GC B cells) | vaccine-specific GC B cells (6OXY-specific GC B cells)
keyhole limpet hemocyanin [KLH] | No significant pathology | No significant pathology | occasionally moderate vacuolar change | mild to occasionally moderately increased numbers of inflammatory cells | 26.5 ± 0.39 g | in the normal range | higher | 71.6 ± 3.2^ U/L | 626 ± 24.7 U/L | 161 ± 10.4 mg/dL | 0.2 ± 0.10 mg/dL | 5.7 ± 0.32 g/dL | 20 ± 1.5 mg/dL | – | –
IL-4: recombinant mouse IL-4 from Bio-Techne Corp., co-administered with OXY-KLH (protein, UniProt P07750 21-140, looked up) Interleukin-4: HIHGCDKNHLREIIGILNEVTGEGTPCTEMDVPNVLTATKNTTESELVCRASKVLRIFYLKHGKTPCLKKNSSVLMELQRLFRAFRCLDSSISCTMNESKSTSLKDFLESLKSIMQMDYS | – | – | – | – | – | – | – | – | – | – | – | – | – | increased | increased

Reference: US12070492B2, “Therapeutic compositions and methods with cytokine signaling immunomodulators” (Hennepin Healthcare Research Institute, priority 2016, dated 2024)
